Article PMC6484772, “S100A3 a partner protein regulating the stability/activity of RARα and PML-RARα in cellular models of breast/lung cancer and acute myeloid leukemia” (Oncogene, 2018)

Target: T1, GST-RARα (UniProt P10276 1-462)
T1 construct: full-length RARα; also called GST-tagged full-length RARα; source: GST-tagged recombinant protein
T1 sequence (looked up): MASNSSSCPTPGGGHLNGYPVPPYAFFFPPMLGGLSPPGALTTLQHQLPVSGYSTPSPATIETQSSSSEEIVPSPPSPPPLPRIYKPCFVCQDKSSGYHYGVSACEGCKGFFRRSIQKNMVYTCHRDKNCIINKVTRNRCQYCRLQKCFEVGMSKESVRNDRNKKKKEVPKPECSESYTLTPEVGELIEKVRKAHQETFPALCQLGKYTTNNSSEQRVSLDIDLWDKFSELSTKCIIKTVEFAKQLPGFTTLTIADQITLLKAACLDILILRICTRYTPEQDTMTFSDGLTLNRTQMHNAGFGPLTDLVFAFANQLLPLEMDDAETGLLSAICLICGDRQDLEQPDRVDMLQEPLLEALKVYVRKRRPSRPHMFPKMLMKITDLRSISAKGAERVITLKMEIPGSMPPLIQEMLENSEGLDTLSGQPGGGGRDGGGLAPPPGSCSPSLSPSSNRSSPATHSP
Experiment: far-Western, overlay or dot blot; S100A3 immunoprecipitated from extracts of transfected COS-7 cells with anti-S100A3 beads, resolved and blotted; probed with GST-tagged RARα recombinant proteins; developed with an anti-GST antibody
Conditions: both partners purified

- binding result: binds
B1: S100A3 (over-expressed in COS-7) (natural protein, human, UniProt P33764 1-101, looked up)
chain: MARPLEQAVAAIVCTFQEYAGRCGDKYKLCQAELKELLQKELATWTPTEFRECDYNKFMSVLDTNKDCEVDFVEYVRSLACLCLYCHEYFKDCPSEPPCSQ
notes: protein S100-A3; source: COS-7, transiently transfected (pcDNA3 expression plasmid for the S100A3 cDNA), in cell extract; immunoprecipitated with anti-S100A3 for the far-western
